This note sets out measurements from patent EP4569003A2 (dated 2026).

Test [1] concerns the target T1, CLDN3-GFP, expressed in HEK293 T cells (UniProt O15551 1-220).
T1 construct: whole, on cells; also called Claudin3; HEK293 CLDN3; not shown: GFP fused to CLDN3
T1 sequence (looked up): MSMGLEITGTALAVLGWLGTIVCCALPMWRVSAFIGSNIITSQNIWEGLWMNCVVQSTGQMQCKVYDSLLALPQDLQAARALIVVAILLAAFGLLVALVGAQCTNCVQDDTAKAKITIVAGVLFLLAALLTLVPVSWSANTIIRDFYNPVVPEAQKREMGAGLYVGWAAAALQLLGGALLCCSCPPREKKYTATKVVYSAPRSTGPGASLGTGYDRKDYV
The test is described as follows: immunohistochemistry on FFPE engineered HEK293 cells.

Test [2] concerns the target T2, CLDN4-GFP, expressed in HEK293 T cells (UniProt O14493 1-209).
T2 construct: whole, on cells; also called Claudin4; HEK293 4; not shown: GFP fused to CLDN4
T2 sequence (looked up): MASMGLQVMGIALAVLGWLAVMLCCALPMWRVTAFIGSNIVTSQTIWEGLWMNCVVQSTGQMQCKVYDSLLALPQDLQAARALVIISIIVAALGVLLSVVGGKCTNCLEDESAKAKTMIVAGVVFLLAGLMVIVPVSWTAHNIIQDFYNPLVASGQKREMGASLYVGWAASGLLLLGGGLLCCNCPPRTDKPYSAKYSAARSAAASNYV
The test is described as above.

Test [3] deals with T3, CLDN9-GFP, expressed in HEK293 T cells (UniProt O95484 1-217).
T3 construct: whole, on cells; also called Claudin9; HEK293 9; not shown: GFP fused to CLDN9
T3 sequence (looked up): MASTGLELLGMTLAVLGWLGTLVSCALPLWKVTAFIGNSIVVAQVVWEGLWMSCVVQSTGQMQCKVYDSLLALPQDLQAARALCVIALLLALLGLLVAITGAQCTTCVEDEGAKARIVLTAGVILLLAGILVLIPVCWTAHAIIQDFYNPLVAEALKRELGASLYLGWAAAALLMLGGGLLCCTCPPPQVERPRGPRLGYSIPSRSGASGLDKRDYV
The test is described as above.

Test [4] has as its target T4, CLDN6 cytoplasmic domain peptide SHYMARYSTSAPAIS (SEQ ID NO: 99) (human).
T4 peptide: SHYMARYSTSAPAIS
As to the kind of experiment: peptide epitope mapping (FIG 2).

B1: Claudin-6 (CLDN6) antibody 3H11 (antibody, V domains shown)
VH: EIQLQQSGAELVRPGALVRLSCKPSGFNIKDYYIHWVKERPEQGLEWIGWIDPDNGDTLYDSKFQGKASLTADTSSNTAYLQLTSLTSEDTAVYYCATYRYSFAYWGQGTLVTVSA
VL: DIQMNQSPSSLSASLGDTITITCHASQNINVWLNWYQQKPGNIPKLLIFKASNLYTGVPSRFSGGGSGTGFTLTISSLQPEDIATYYCQQGQTYPLTFGGGTKLEIK
notes: Mouse hybridoma clone; Detection was with goat anti-mouse IgG; also called clone 3H11
Take B1: the binding result in test [1], in test [2] and in test [3] was “no binding” in each case.

B2: Claudin-6 (CLDN6) antibody 3D07 (antibody, V domains shown)
VH: EVQLQQFGAELVKPGASVKISCRTSGYTFTDYNIDWVRQSHGKSLEWIGDINPNSENTDYNQKFKGKATLTVDKSSSTAYLELRSLTSEDTAVYYCARSPYGNYVGYLMDYWGQGTSVTVSS
VL: DVVLTQTPLSLPVNIGDQASISCRSTKSLLNSDGFTYLDWYLQKPGQSPQVLIYLISNRFSGVPDRFSGNGSGTDFTLKISRVEAEDLGVYYCFQSNYIPLTFGAGTKLELK
notes: Mouse hybridoma clone; Detection was with goat anti-mouse IgG; also called clone 3D07
Regarding B2, the binding result is reported as “binds” in test [4], “no binding” in test [1], “no binding” in test [2] and “no binding” in test [3].
